This assay concerns the target KRas WT G domain (UniProt P01116-1 1-166). The assay is described as follows: pull-down.

B1: GST-RBD (domain or fragment)
chain: GLTSKESLFVRINAAHGFSLIQVDNTKVTMKEILLKAVKRRKGSQKVSGPQYRLEKQSEPNVAVDLDSTLESQSAWEFCLVRENSSRAD
As for B1, the binding result is “binds”.

Source of the values: publication PMC9171633 (Proceedings of the National Academy of Sciences of the …, 2022).
